This is an account of results in US11584772B2, “N4-modified cytidine nucleotides and their use” (VILNIUS UNIVERSITY, priority 2017, dated 2023).

For one data set, the target named is NLRC4 inflammasome (Homo sapiens, UniProt Q9NPP4). Conditions: cited from earlier work.
For data set [1] the following is noted: cited from earlier work.
The conditions of data set [2]: mice; cited from earlier work.
Data set [3] has as its system platelets and neutrophils. The settings on record: cited from earlier work.
Data set [4] in a line: hydrolysis of the amide bond of modified dCTP by purified recombinant proteins (amidase activity). Format: biochemical. The settings on record: purified His-tagged recombinant protein, 37° C., various buffer solutions. The procedure:
(§1) Then recombinant proteins (EST, D6 and YqfB) having polyhystidine-tag at the N-terminus were purified by affinity chromatography, enzymatic activities of each protein were estimated.
All three selected proteins are able to hydrolyse the amide bond of N^4-modified cytidine nucleotide. The hydrolysis reaction proceeds in various buffer solutions at 37° C. Depending on the concentration of purified protein enzymatic reaction lasts from several minutes to several hours. […] Moreover, these proteins are capable of hydrolysing not only the amide bond of modified dCTP but also the amide bond of modified cytidine.

The nature of data set [5]: esterase activity of purified recombinant proteins. Format: biochemical. The settings on record: purified His-tagged recombinant protein.
Excerpt: as §1

NLRC4 inflammasome, sequence (Q9NPP4 whole entry): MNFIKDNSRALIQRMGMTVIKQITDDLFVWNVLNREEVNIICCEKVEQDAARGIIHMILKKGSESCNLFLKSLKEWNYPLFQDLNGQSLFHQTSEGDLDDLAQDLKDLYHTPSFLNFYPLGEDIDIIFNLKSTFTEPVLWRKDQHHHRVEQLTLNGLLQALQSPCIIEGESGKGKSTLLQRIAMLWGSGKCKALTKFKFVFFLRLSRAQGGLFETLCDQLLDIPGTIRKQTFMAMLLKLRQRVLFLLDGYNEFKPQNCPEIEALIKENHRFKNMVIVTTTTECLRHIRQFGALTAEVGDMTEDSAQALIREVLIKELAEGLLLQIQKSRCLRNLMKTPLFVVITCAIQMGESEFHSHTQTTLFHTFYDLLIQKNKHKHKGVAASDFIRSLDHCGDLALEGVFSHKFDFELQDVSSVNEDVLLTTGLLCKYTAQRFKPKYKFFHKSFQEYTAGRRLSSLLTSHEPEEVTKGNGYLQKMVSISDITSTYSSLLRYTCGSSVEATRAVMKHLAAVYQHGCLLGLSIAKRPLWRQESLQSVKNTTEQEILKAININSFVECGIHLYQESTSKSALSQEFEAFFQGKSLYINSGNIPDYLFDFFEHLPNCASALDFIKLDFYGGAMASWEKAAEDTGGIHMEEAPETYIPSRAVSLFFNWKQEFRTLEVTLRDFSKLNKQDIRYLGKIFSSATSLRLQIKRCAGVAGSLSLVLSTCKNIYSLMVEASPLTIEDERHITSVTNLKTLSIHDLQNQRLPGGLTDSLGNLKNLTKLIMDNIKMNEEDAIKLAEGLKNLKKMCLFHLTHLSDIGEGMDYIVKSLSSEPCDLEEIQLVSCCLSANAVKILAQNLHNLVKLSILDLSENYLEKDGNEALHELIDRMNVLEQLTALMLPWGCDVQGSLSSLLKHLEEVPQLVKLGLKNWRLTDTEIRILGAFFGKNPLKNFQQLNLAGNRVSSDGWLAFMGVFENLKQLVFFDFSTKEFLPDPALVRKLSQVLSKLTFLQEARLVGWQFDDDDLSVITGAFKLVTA

`CC(=O)Nc1ccn([C@@H]2O[C@H](CO)[C@@H](O)[C@H]2O)c(=O)n1` [N^4-acetyl-cytidine]: the “activation of the NLRC4 inflammasome” value at NLRC4 inflammasome was “activates the NLRC4 inflammasome”. Besides, in data set [1], the “production of IL-1μ” value is listed as “induces the production of IL-1μ”. In addition, in data set [2], the blood pressure entry is listed as “elevates blood pressure in mice”. Further, the “activation of platelets and neutrophils” value in data set [3] was “activates platelets and neutrophils”.

B1: EST: recombinant protein selected from metagenomic library, polyhystidine-tag at the N-terminus; amidase and esterase (protein)
chain: MSSLFIGQVFAKTPEVQTSDLTGNTTCSNLVGMVIPADEIGLPTSGATITSATLKIVEDGAIKDAEYCEVLGAIHPVDPTAPDINFQVNLPTNWNKKFLQFGGGYFNGTVRTGLGNPPAGDRKLGKNTPLAQGYVTFGSDSGNSTAPLDASFGMNDEALKNFAGDQLKKTKDVALALANVRYNAVPDQVYFAGGSEGGREGLFIVQNFPDEYDGVISVYPVLNWIPKALKDNRDAQALYKNDGEGWISPEENDLINETVFKACDSLDGVKDGIISNTSECAEKEDKILDTLSESLSEKQIEVIKSFNGPMEFDIQLANDFTTMPGYSQLQGADIGRLFGTRPIPGVPPVVSESVGHVIDEQDALMGVYSDQVIRYKITRNPDFNTLTFDPNEYREEILKASNLLDVTDPNISEFRENGGKLILVHGTEDEMVAPQGTSDYYSKLVNEFGQESLDEFAQYYLVPGFSHGGGNFTMSANLLGALDAWVVNGDVPSNLVAEDQNSATFGRTRPLCEYPTYPQYNGSGDVNSAASFTCLKADKDKDISASDIQKLIEKFEVDGEFANHGTARSLQAHLDILIKLESQERETVDQIVKHTQKFIKLLDNHKKNGKITDHAYNTLKELAESYIKQIK
modifications: N-terminal His tag; Metagenomic origin
notes: recombinant protein selected from metagenomic library, polyhystidine-tag at the N-terminus; amidase and esterase
Consider B1, for which the “hydrolysis of the amide bond of modified dCTP (activity of amidase)” value (“hydrolysis” for short) in data set [4] is given as “hydrolyse the amide bond of modified dCTP”. Also, the esterase activity entry in data set [5] is “behave as esterases”.

B2: YqfB: recombinant protein selected from metagenomic library, polyhystidine-tag at the N-terminus; amidase and esterase (protein, listed as Escherichia coli)
chain: MQPNDITFFQRFQDDILAGRKTITIRDESESHFKTGDVLRVGRFEDDGYFCTIEVTATSTVTLDTLTEKHAEQENMTLTELKKVIADIYPGQTQFYVIEFKCL
modifications: N-terminal His tag
notes: as for B1
B2: the “hydrolysis” value in data set [4] is given as “hydrolyse the amide bond of modified dCTP”. In data set [5], the esterase activity result is reported as “behave as esterases”.

B3: D6: recombinant protein selected from metagenomic library, polyhystidine-tag at the N-terminus; amidase and esterase (protein)
chain: MEQLKFQKNWNNKCSCDFFTTIRLKGPKYTVGKELEMRIYKGGVFQNHGMIRVASLRPIQLHQINEWISRLDSGLSPEELRSELFYMYKDKVADVNKVDFYLILCERVKSKPIQNALFSTESTPAHD
modifications: N-terminal His tag; Metagenomic origin
notes: as for B1
Regarding B3, the “hydrolysis” value in data set [4] is “hydrolyse the amide bond of modified dCTP”. In addition, the esterase activity result in data set [5] is given as “behave as esterases”.
